{
  "source": "patent US20220332804A1",
  "about": "(CSL INNOVATION, published 2022)",
  "assay_in_all_cases": "SPR, KD relative to WT C2;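 also: biacore SPR at 37 °C, anti-C2 mAbs captured via immobilised goat anti-human IgG, C2 alanine or serine surface mutants as analytes, 1:1 model fitted, double-referenced sensograms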",
  "key": {"human C2 K430A": {"molecular_target": "T1, human C2 K430A (human, UniProt P06681 21-752)", "T1 sequence": "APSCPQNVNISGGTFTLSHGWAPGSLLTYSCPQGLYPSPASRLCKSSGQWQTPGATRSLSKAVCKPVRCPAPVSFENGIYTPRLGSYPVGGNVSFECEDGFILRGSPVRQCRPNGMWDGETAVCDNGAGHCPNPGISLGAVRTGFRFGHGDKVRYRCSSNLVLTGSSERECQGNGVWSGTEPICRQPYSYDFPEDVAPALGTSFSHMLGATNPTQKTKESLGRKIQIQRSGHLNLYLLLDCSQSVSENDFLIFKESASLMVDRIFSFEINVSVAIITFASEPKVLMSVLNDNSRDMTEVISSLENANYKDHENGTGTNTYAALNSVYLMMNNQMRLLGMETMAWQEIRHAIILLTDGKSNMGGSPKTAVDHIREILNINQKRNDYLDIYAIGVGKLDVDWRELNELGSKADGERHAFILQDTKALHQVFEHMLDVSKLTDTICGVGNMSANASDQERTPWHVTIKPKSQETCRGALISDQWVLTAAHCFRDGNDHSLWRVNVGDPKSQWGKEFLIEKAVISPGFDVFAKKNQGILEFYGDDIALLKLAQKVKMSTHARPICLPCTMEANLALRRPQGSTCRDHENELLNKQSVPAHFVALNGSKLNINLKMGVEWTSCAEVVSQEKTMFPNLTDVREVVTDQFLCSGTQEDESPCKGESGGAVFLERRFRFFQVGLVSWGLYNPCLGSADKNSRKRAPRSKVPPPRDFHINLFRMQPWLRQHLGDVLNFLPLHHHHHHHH"}, "human C2 W420A": {"molecular_target": "T2, human C2 W420A (human, UniProt P06681 21-752)", "T2 sequence": "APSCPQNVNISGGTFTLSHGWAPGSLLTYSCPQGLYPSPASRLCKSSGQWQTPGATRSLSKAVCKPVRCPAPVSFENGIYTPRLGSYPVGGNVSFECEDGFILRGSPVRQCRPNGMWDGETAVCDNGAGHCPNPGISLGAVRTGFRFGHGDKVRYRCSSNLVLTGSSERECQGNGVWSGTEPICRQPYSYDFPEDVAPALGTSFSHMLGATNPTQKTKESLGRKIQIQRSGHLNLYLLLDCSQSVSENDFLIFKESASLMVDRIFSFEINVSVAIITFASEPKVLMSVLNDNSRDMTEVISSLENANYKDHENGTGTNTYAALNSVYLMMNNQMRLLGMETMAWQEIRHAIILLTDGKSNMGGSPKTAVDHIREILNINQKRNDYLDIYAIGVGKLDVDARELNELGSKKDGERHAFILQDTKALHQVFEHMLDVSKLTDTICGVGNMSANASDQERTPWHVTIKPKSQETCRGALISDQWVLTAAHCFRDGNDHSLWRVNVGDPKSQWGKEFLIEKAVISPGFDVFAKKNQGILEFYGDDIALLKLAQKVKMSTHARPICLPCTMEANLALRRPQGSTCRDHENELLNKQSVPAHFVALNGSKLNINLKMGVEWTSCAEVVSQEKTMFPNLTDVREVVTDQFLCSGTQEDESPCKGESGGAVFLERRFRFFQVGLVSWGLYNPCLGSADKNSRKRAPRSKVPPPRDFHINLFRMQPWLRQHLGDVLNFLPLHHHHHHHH"}, "human C2 Y328A": {"molecular_target": "T3, human C2 Y328A (human, UniProt P06681 21-752)", "T3 sequence": "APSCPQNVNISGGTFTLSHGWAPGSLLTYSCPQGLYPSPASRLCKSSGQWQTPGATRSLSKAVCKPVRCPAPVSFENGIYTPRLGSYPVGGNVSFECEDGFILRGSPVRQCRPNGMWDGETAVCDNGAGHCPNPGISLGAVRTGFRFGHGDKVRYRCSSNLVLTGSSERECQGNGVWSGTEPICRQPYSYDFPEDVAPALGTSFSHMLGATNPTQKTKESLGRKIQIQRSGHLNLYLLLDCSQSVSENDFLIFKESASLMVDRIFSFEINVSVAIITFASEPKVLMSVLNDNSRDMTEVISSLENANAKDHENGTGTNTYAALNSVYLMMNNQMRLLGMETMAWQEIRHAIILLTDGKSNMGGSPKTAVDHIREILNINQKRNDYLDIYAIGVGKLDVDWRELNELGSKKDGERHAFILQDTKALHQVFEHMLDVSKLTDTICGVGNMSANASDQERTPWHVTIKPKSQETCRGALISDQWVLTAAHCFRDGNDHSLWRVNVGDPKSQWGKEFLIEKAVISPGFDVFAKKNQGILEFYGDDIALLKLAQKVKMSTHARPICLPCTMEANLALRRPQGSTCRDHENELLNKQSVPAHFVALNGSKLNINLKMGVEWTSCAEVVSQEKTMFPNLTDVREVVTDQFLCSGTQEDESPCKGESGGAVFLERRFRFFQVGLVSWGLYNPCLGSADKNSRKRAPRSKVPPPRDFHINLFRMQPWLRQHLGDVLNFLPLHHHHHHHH"}, "human C2 L271A": {"molecular_target": "T4, human C2 L271A (human, UniProt P06681 21-752)", "T4 sequence": "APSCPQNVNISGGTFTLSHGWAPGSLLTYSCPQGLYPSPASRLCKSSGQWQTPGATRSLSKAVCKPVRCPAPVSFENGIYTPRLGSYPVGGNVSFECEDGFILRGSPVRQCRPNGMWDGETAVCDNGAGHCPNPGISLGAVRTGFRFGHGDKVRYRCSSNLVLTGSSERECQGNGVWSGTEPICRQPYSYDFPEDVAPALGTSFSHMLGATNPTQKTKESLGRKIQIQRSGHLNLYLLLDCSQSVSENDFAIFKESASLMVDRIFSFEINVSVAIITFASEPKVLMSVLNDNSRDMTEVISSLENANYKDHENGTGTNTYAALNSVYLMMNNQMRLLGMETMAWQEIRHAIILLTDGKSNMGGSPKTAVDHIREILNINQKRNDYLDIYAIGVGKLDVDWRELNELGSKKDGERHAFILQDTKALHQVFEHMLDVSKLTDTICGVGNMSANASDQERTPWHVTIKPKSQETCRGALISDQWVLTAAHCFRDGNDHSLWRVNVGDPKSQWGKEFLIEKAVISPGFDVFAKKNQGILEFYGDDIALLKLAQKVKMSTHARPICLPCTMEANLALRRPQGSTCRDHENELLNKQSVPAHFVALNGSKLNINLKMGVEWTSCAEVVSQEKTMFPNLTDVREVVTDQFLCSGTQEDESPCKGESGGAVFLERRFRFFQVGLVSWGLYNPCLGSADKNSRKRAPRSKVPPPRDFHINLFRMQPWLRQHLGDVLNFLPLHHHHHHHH"}},
  "data": [
    {"binder": "RF16-226 (antibody, human IgG4 S228P, lambda, pH-dependent anti-C2 antibody from a phage display library; also called WT) heavy: not shown light: SYELTQPPSVSVSPGQTARITCSGDALTSKYVAWYQQKSGLAPLLVIYEDTRRPSGIPAKFSGSSSGSVATLTISGAHGDDEADYYCYSTDASGHQRVFGGGTKLTVLSQPKAAPSVTLFPPSSEELQANKATLVCLISDFYPGAVTVAWKADGSPVKAGVETTKPSKQSNNKYAASSYLSLTPEQWKSHRSYSCQVTHEGSTVEKTVAPTECS", "values": [
      {"measurement": "Fold diff", "setting": "human C2 K430A", "value": 6, "unit": "fold"},
      {"measurement": "Fold diff", "setting": "human C2 W420A", "value": 2, "unit": "fold"},
      {"measurement": "Fold diff", "setting": "human C2 Y328A", "value": 8, "unit": "fold"},
      {"measurement": "Fold diff", "setting": "human C2 L271A", "value": 1, "unit": "fold"}
    ]}
  ]
}
